Source: publication PMC6200642

B1: osteoadherin (natural protein)
chain: QYETYQWDEDYDQEPDDDYQTGFPFRQNVDYGVPFHQYTLGCVSECFCPTNFPSSMYCDNRKLKTIPNIPMHIQQLYLQFNEIEAVTANSFINATHLKEINLSHNKIKSQKIDYGVFAKLPNLLQLHLEHNNLEEFPFPLPKSLERLLLGYNEISKLQTNAMDGLVNLTMLDLCYNYLHDSLLKDKIFAKMEKLMQLNLCSNRLESMPPGLPSSLMYLSLENNSISSIPEKYFDKLPKLHTLRMSHNKLQDIPYNIFNLPNIVELSVGHNKLKQAFYIPRNLEHLYLQNNEIEKMNLTVMCPSIDPLHYHHLTYIRVDQNKLKEPISSYIFFCFPHIHTIYYGEQRSTNGQTIQLKTQVFRRFPDDDDESEDHDDPDNAHESPEQEGAEGHFDLHYYENQE
modifications: biotinylated (EZ-Link Sulfo-NHS-LC-Biotinylation kit); glycosylated
B2: biglycan (natural protein)
chain: DEEASGADTSGVLDPDSVTPTYSAMCPFGCHCHLRVVQCSDLGLKSVPKEISPDTTLLDLQNNDISELRKDDFKGLQHLYALVLVNNKISKIHEKAFSPLRKLQKLYISKNHLVEIPPNLPSSLVELRIHDNRIRKVPKGVFSGLRNMNCIEMGGNPLENSGFEPGAFDGLKLNYLRISEAKLTGIPKDLPETLNELHLDHNKIQAIELEDLLRYSKLYRLGLGHNQIRMIENGSLSFLPTLRELHLDNNKLARVPSGLPDLKLLQVVYLHSNNITKVGVNDFCPMGFGVKRAYYNGISLFNNPVPYWEVQPATFRCVTDRLAIQFGNYKK
modifications: biotinylated (EZ-Link Sulfo-NHS-LC-Biotinylation kit); glycosylated
B3: fibromodulin (natural protein)
chain: QYEDDPHWWFHYLRSQQSTYYDPYDPYPYETYEPYPYGVDEGPAYTYGSPSPPDPRDCPQECDCPPNFPTAMYCDNRNLKYLPFVPSRMKYVYFQNNQITSIQEGVFDNATGLLWIALHGNQITSDKVGRKVFSKLRHLERLYLDHNNLTRMPGPLPRSLRELHLDHNQISRVPNNALEGLENLTALYLQHNEIQEVGSSMRGLRSLILLDLSYNHLRKVPDGLPSALEQLYMEHNNVYTVPDSYFRGAPKLLYVRLSHNSLTNNGLASNTFNSSSLLELDLSYNQLQKIPPVNTNLENLYLQGNRINEFSISSFCTVVDVVNFSKLQVLRLDGNEIKRSAMPADAPLCLRLASLIEI
modifications: biotinylated (EZ-Link Sulfo-NHS-LC-Biotinylation kit); glycosylated

Target: recombinant UspA2 (ubiquitous surface protein A2), cloned from M. catarrhalis strain RH4 (Moraxella catarrhalis strain RH4)
Assay: ELISA

| Molecule | Kd [nM] |
| --- | --- |
| decorin (from UniProt P07585 31-359) (natural protein) | 293 |
| B1 | 231 |
| B2 | 89 |
| B3 | 202 |
